According to patent US20230391859A1:

What was measured:
[1] = target: cardiac amyloid deposits (ATTR amyloid) (UniProt P02766); experiment: ex vivo binding curve on cardiac tissue sections with amyloid (FIG. 5G); same value in mass units
[2] = target: cardiac amyloid deposits (ATTR amyloid) (UniProt P02766); experiment: ex vivo binding to cardiac amyloid in tissue sections, quantified as % of maximum
[3] = target: cardiac amyloid deposits (ATTR amyloid) (UniProt P02766); experiment: ex vivo binding curve on cardiac tissue sections with amyloid (FIG. 5G)

- Kd [1]: 0.26 mg/L
- EC50 (read off the curve) [2]: 0.3 mg/L
- Kd [3]: 1.75 nM
Substance: murine precursor of PRX004 (mPRX004) (antibody)
